No end group written: not given here.
T1: soluble extracellular domain of human α-Klotho (aa 1-980) fused to a 6xHis tag (human, UniProt Q9UEF7 34-980)
T1 construct: Secreted from HEK293 EBNA cells; also called sKLA; soluble α-Klotho
T1 sequence: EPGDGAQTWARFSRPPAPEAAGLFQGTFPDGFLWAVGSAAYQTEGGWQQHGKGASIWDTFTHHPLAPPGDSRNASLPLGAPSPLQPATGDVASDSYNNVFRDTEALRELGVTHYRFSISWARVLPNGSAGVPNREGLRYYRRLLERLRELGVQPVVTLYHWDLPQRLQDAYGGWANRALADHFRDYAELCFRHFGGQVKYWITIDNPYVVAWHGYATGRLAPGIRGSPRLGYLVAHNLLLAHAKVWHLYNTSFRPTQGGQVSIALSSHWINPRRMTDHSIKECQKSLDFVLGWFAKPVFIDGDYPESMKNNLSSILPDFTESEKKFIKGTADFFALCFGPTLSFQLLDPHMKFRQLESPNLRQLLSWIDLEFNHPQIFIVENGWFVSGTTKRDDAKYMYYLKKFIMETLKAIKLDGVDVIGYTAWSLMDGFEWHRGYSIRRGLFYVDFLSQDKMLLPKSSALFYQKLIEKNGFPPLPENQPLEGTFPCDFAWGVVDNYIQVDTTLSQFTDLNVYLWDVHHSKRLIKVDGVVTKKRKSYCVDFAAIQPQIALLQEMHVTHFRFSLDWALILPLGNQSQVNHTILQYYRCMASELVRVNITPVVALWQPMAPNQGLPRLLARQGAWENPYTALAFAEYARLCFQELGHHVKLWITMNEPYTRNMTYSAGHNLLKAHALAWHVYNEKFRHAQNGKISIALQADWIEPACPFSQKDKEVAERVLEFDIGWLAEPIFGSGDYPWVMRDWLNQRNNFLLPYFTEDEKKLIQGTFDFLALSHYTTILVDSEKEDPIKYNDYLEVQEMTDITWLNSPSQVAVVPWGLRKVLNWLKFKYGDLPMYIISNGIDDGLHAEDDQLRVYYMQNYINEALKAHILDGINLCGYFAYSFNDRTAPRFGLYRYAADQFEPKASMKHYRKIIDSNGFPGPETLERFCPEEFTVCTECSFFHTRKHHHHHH

T2: full-length human α-Klotho with a C-terminal HA-tag on HEK293 cells stably co-expressing FGFR1c (human) (UniProt Q9UEF7)
T2 sequence: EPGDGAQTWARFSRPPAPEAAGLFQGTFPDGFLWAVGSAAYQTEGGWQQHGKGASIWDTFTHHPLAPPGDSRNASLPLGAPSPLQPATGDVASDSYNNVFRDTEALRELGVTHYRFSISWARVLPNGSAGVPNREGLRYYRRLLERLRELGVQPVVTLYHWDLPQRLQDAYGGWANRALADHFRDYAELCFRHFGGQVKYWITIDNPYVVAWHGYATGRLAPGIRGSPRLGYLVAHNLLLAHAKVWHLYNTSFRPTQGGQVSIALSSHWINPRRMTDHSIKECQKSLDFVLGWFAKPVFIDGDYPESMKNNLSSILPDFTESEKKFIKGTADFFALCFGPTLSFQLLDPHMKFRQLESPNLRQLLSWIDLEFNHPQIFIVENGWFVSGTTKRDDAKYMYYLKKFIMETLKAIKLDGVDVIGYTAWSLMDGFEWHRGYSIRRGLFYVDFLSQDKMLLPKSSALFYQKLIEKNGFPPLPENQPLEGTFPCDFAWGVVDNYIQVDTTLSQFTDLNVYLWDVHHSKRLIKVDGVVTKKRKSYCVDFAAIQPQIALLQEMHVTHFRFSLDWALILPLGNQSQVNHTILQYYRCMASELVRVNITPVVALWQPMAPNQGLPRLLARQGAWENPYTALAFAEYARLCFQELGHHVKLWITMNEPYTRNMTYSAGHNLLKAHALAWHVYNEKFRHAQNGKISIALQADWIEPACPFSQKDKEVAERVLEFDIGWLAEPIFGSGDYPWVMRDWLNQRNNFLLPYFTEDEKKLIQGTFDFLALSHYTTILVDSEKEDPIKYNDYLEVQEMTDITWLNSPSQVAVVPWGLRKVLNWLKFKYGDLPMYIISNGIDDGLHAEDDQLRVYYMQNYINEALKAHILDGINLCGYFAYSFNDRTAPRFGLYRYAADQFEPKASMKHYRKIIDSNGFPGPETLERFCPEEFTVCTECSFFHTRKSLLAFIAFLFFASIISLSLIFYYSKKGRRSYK


Experiments:
[1] = molecular target: T1, soluble extracellular domain of human …; test: BLI (Octet); GST fusion captured on anti-GST biosensor, sKLA in solution at 6.25-200 nM, 1:1 fit, mean ± S.D. of 3 experiments
Protocol: Kinetic parameters and dissociation constants of sKLA binding to the various forms of full length FGF23 or GST-fused C-terminal fragments of FGF23 were studied using Bio-Layer Interferometry (BLI). Octet RED96 system (Pall ForteBio) equipped with anti-mouse IgG Fc (AMC) biosensors was used to study interactions between α-Klotho and FLAG-tagged FGF23. Biosensor tips were loaded with anti-FLAG M2 antibody (Millipore Sigma) at 5 μg/ml for 2 min, washed in BLI buffer (25 mM HEPES, 150 mM NaCl, pH 7.5, 0.002% Tween-20, 1 mg/mL BSA) for 60 s, and then loaded with FLAG-tagged FGF23 at 5 μg/ml for 4 min. Alternatively, anti-GST biosensor tips were loaded with 5 ug/ml GST fused with various FGF23 C-terminal fragments for 15 s. Subsequently, ligand-loaded sensor tips were dipped into microplate wells containing different sKLA concentrations, ranging from 6.25 nM to 200 nM in 2-fold dilutions of BLI buffer. After each binding cycle the sensor tips were regenerated with 10 mM glycine (pH 1.5). The collected data were referenced using a parallel buffer control subtraction, and sensograms were fitted globally to a 1:1 Langmuir binding model using ForteBio Data Analysis 10.0 software provided by the manufacturer.
To examine the significance of each of the two FGF23 repeats in α-Klotho binding and receptor activation, bio-layer interferometry (BLI) analyses was applied to measure the kinetic parameters and dissociation constants of each repeat alone or the entire C-terminal tail of FGF23 towards sKLA. To that end, GST-fusion proteins expressing either full length (FL) tail of FGF23 (amino acids […]), the first repeat R1 (amino acids S180-S205), or the second repeat R2 (amino acids […]) were produced in E. coli (FIG. 6) and immobilized on BLI sensors. sKLA was produced in HEK293 EBNA cells and used as an analyte in the BLI measurements (see elsewhere herein).

[2] = molecular target: T2, full-length human α-Klotho with a C-terminal HA-tag on HEK293 cells stably co-expressing FGFR1c (human); test: cell-based or functional assay

Binder | Kd [1] | koff [1] | kon [1] | complete inhibition of FGF23-induced MAPK stimulation in HEK293 cells co-expressing α-Klotho and FGFR1c [2]
SAEDDSERDPLNVLKPRARMTPAPAS (other, also: GST fusion partner (recombinant, not part of given chain), Expressed in E. coli; also called GST-R1; not shown: glutathione S-transferase encoded by the pGEX4T1 vector (GE Healthcare)) [GST fusion of repeat 1 (R1, aa 180-205) of the human FGF23 C-terminal tail] | 20 nM | 0.0041 s⁻¹ | 210000 M⁻¹ s⁻¹ | 
SAEDDSERDPLNVLKPRARMTPAPAS (Fc fusion, not shown: a dimerising Fc or GST, not fully specified (N-terminus); also: dimeric Fc fusion protein, Fc-R1 junction/linker not given here) [human IgG1 Fc fused to R1 (aa 180-205) of human FGF23] |  |  |  | 100 to 250 nM
SAEDNSPMASDPLGVVRGGRVNTHAGGTGPEG (other, not fully specified; also: fused to glutathione S-transferase (pGEX4T1), vector linker residues not given here, The plasmid limits are used here; also called GST-R2; not shown: glutathione S-transferase encoded by the pGEX4T1 vector (GE Healthcare)) [GST fusion of repeat 2 (R2) of the human FGF23 C-terminal tail] | 17 nM | 0.0034 s⁻¹ | 200000 M⁻¹ s⁻¹ | 
human IgG1 Fc fused to the full-length C-terminal tail of human FGF23 (aa 180-251) (Fc fusion, not shown: a dimerising Fc or GST) SAEDDSERDPLNVLKPRARMTPAPASCSQELPSAEDNSPMASDPLGVVRGGRVNTHAGGTGPEGCRPFAKFI |  |  |  | 100 to 250 nM
GST fusion of the full-length C-terminal tail of human FGF23 (aa 180-251) (other, Expressed in E. coli BL21-Gold (DE3); also called GST-FL; FL tail of FGF23; not shown: glutathione S-transferase encoded by the pGEX4T1 vector (GE Healthcare)) SAEDDSERDPLNVLKPRARMTPAPASCSQELPSAEDNSPMASDPLGVVRGGRVNTHAGGTGPEGCRPFAKFI | 15 nM | 0.0031 s⁻¹ | 210000 M⁻¹ s⁻¹ | 
